{
  "source": "patent CN114106164A",
  "about": "(HANGZHOU PINK BIOTECHNOLOGY LTD COMPANY, dated 2022)",
  "binders": {"B1": {"name": "Mouse anti-SARS-COV-2 Mab1(RBD-Ab) (antibody, V domains shown)", "VH": "VKLQESGAELVRPGTSVKVSCKASGYAFTNYLIEWVKQRPGQGLEWIGVINPGSGGTNYNEKFKGKATLTADKSSSTAYMQLSSLTSDDSAVYFCARGRADYWGQGTSVTVSS", "VL": "DILMTQSPSSMSVSLGDTVSITCHASQGFSSNIGWLQQKPGKSFKGLIYHGTNLEDGVPSRFSGSGSGADYSLTISSLESEDFADYYCVQYAQFPYTFGGGTKLEIK", "notes": "also called B1-5; B1-5号抗体"}, "B2": {"name": "B1-2 (antibody, V domains shown)", "VH": "QVQLVESGGGFVQPGGSLRLSCAVSGGTFSTYGMGWFRQAPGKEREIVAAIRRSGSTYYADSVRGRFTISRDNAKNSVLLQMNSLKPEDTAVYYCAARRAGREYEYWGQGTQVTVSS"}, "B3": {"name": "B1-1 (antibody, V domains shown)", "VH": "QVQLVESGGGLVQPGGSLRLSCAASGFTFDDYAMSWVRQAPGKGLEWVSNIYSYISTTHYADSVKGRFTISTDNAKNTLYLQMNSLKPEDTAVYYCAARRLDTTDYKYWGQGTQVTVSS"}, "B4": {"name": "A2-2 (antibody, V domains shown)", "VH": "not shown", "VL": "EIVLTQSPGTLSLSPGERATLSCRASQTVRSDLAWYQQKPGQAPRLLIYGASTRATDISDRFSGSGSGTEFTLTISSLQSEDFAVYYCQQYYEWPPHSDSFGGGTKVEIK"}, "B5": {"name": "A2-4 (antibody, V domains shown)", "VH": "EVKLMESGGGLVQPGGSLKLSCAASGFDFSRYWMSWVRQAPGEGLEWIGEINPDSSTISYTPSLKDKFIISRDNAKNTLYLQMSKVRSEDTALYYCARRGLLLLTMDYWGQGTSVTVSS", "VL": "DIVMTQSPKSLSMSVGERVTLSCKASENVDTYVSWYQQKPEQSPKLLIYGASNRYTGVPDRFTGSGSATYFTLTISSVQAEDLADYHCGQTYSYPFTFGSGTKLEIK"}},
  "data": [
    {"target": "T1, SARS-CoV Spike/RBD Protein(RBD,His Tag)，货号40150-V08B2 (SARS-CoV, UniProt P59594 306-527)", "T1 construct": "domain: RBD", "assay": "ELISA, cross-reactivity test", "values": [
      {"binder": "B1", "binding result": "no binding"}
    ]},
    {"target": "T2, MERS-CoV Spike/RBD Protein fragment(RBD,aa 367-606,His Tag)，货号40071-V08B1 (MERS-CoV, UniProt K9N5Q8 367-606)", "T2 construct": "range 367-606; Bought reagent", "assay": "ELISA, cross-reactivity test", "values": [
      {"binder": "B1", "binding result": "no binding"}
    ]},
    {"target": "T3, SARS-CoV-2-RBD蛋白 (重组6X His标记的RBD蛋白) (SARS-CoV-2, UniProt P0DTC2 319-541)", "assay": "indirect ELISA, purified antibody, antigen coated 3ug/ml", "values": [
      {"binder": "B2", "ELISA OD at 1.28ng/ml": 0.073, "ELISA OD at 6.4ng/ml": 0.085, "ELISA OD at 32ng/ml": 0.127, "ELISA OD at 160ng/ml": 0.26, "ELISA OD at 800ng/ml": 0.647, "ELISA OD at 4ug/ml": 1.49, "ELISA OD at 20ug/ml": 2.04},
      {"binder": "B3", "ELISA OD at 1.28ng/ml": 0.072, "ELISA OD at 6.4ng/ml": 0.088, "ELISA OD at 32ng/ml": 0.154, "ELISA OD at 160ng/ml": 0.38, "ELISA OD at 800ng/ml": 0.929, "ELISA OD at 4ug/ml": 1.19, "ELISA OD at 20ug/ml": 1.35},
      {"binder": "B4", "ELISA OD at 1.28ng/ml": 0.115, "ELISA OD at 6.4ng/ml": 0.229, "ELISA OD at 32ng/ml": 0.447, "ELISA OD at 160ng/ml": 0.689, "ELISA OD at 800ng/ml": 1.27, "ELISA OD at 4ug/ml": 1.62, "ELISA OD at 20ug/ml": 1.72},
      {"binder": "B5", "ELISA OD at 1.28ng/ml": 0.106, "ELISA OD at 6.4ng/ml": 0.126, "ELISA OD at 32ng/ml": 0.149, "ELISA OD at 160ng/ml": 0.279, "ELISA OD at 800ng/ml": 0.584, "ELISA OD at 4ug/ml": 1.33, "ELISA OD at 20ug/ml": 1.95}
    ]},
    {"target": "T3, SARS-CoV-2-RBD蛋白 (重组6X His标记的RBD蛋白)", "assay": "indirect ELISA, ascites, antigen coated 3ug/ml", "values": [
      {"binder": "B2", "ELISA OD at 稀释倍数 100": 1.85, "ELISA OD at 稀释倍数 500": 1.61, "ELISA OD at 稀释倍数 2500": 1, "ELISA OD at 稀释倍数 12500": 0.297, "ELISA OD at 稀释倍数 62500": 0.118, "ELISA OD at 稀释倍数 312500": 0.091, "ELISA OD at 稀释倍数 1562500": 0.081},
      {"binder": "B3", "ELISA OD at 稀释倍数 100": 1.43, "ELISA OD at 稀释倍数 500": 1.31, "ELISA OD at 稀释倍数 2500": 1.4, "ELISA OD at 稀释倍数 12500": 1.26, "ELISA OD at 稀释倍数 62500": 0.545, "ELISA OD at 稀释倍数 312500": 0.19, "ELISA OD at 稀释倍数 1562500": 0.084},
      {"binder": "B4", "ELISA OD at 稀释倍数 100": 1.53, "ELISA OD at 稀释倍数 500": 1.49, "ELISA OD at 稀释倍数 2500": 1.46, "ELISA OD at 稀释倍数 12500": 1.06, "ELISA OD at 稀释倍数 62500": 0.508, "ELISA OD at 稀释倍数 312500": 0.155, "ELISA OD at 稀释倍数 1562500": 0.077},
      {"binder": "B5", "ELISA OD at 稀释倍数 100": 1.39, "ELISA OD at 稀释倍数 500": 1.36, "ELISA OD at 稀释倍数 2500": 1.43, "ELISA OD at 稀释倍数 12500": 0.84, "ELISA OD at 稀释倍数 62500": 0.373, "ELISA OD at 稀释倍数 312500": 0.121, "ELISA OD at 稀释倍数 1562500": 0.072}
    ]}
  ]
}
